Like-named read-outs stand apart in the source and are kept apart here.
What was measured:
Assay in all cases: enzyme inhibition kinetics
[1] = target: factor XIa catalytic domain K170A (human) (UniProt P03951)
[2] = target: factor XIa catalytic domain K170A (human) (UniProt P03951); remark: listed apart in the source
[3] = target: factor XIa catalytic domain K175A (human)
[4] = target: factor XIa catalytic domain K179A (human)
[5] = target: factor XIa catalytic domain R171A (human) (UniProt P03951)
[6] = target: factor XIa catalytic domain R173A (human) (UniProt P03951)
[7] = target: full-length factor XIa autolysis loop variant fXIa-144-149A (human)
[8] = target: factor XIa catalytic domain K170A (human) (UniProt P03951); remark: listed apart in the source
[9] = target: factor XIa catalytic domain K175A (human); remark: listed apart in the source
[10] = target: factor XIa catalytic domain K179A (human); remark: listed apart in the source
[11] = target: factor XIa catalytic domain R171A (human) (UniProt P03951); remark: listed apart in the source
[12] = target: factor XIa catalytic domain R173A (human) (UniProt P03951); remark: listed apart in the source
[13] = target: factor XIa catalytic domain with residues 170, 171 and 173 changed to alanine (human) (UniProt P03951)
[14] = target: factor Xa mutants with substitutions for basic residues in the autolysis loop
[15] = target: full-length factor XIa autolysis loop variant fXIa-144-149A (human); remark: listed apart in the source
[16] = target: recombinant wild type factor XIa catalytic domain (human) (UniProt P03951)
wild type factor Xa = wild type factor Xa (UniProt P00742)
[17] = target: wild type recombinant factor XIa, full length (human)

k2 (second-order inhibition rate constant) [1]: 10000 M⁻¹ s⁻¹ | k2 (second-order inhibition rate constant) [2]: 1200 M⁻¹ s⁻¹ | k2 (second-order inhibition rate constant) [3]: 1000 M⁻¹ s⁻¹ | k2 (second-order inhibition rate constant) [4]: 1100 M⁻¹ s⁻¹ | k2 (second-order inhibition rate constant) [5]: 600 M⁻¹ s⁻¹ | k2 (second-order inhibition rate constant) [6]: 1300 M⁻¹ s⁻¹ | k2 (second-order inhibition rate constant) [7]: 19200 M⁻¹ s⁻¹ | k2 (second-order inhibition rate constant) [8]: 734000 M⁻¹ s⁻¹ | k2 (second-order inhibition rate constant) [9]: 730000 M⁻¹ s⁻¹ | k2 (second-order inhibition rate constant) [10]: 778000 M⁻¹ s⁻¹ | k2 (second-order inhibition rate constant) [11]: 261000 M⁻¹ s⁻¹ | k2 (second-order inhibition rate constant) [12]: 667000 M⁻¹ s⁻¹ | k2 (second-order inhibition rate constant) [13]: 430000 M⁻¹ s⁻¹ | fold effect of heparin on inhibition [14]: 4 fold | k2 (second-order inhibition rate constant) [15]: 20600 M⁻¹ s⁻¹ | k2 (second-order inhibition rate constant) [16]: 750000 M⁻¹ s⁻¹ | fold effect of heparin on inhibition (wild type factor Xa): 35 fold | k2 (second-order inhibition rate constant) [17]: 536000 M⁻¹ s⁻¹
B1: C1-inhibitor (natural protein)
chain: NPNATSSSSQDPESLQDRGEGKVATTVISKMLFVEPILEVSSLPTTNSTTNSATKITANTTDEPTTQPTTEPTTQPTIQPTQPTTQLPTDSPTQPTTGSFCPGPVTLCSDLESHSTEAVLGDALVDFSLKLYHAFSAMKKVETNMAFSPFSIASLLTQVLLGAGENTKTNLESILSYPKDFTCVHQALKGFTTKGVTSVSQIFHSPDLAIRDTFVNASRTLYSSSPRVLSNNSDANLELINTWVAKNTNNKISRLLDSLPSDTRLVLLNAIYLSAKWKTTFDPKKTRMEPFHFKNSVIKVPMMNSKKYPVAHFIDQTLKAKVGQLQLSHNLSLVILVPQNLKHRLEDMEQALSPSVFKAIMEKLEMSKFQPTLLTLPRIKVTTSQDMLSIMEKLEFFDFSYDLNLCGLTEDPDLQVSAMQHQTVLELTETGVEAAAASAISVARTLLVFEVQQPFLFVLWDQQHKFPVFMGRVYDPRA

Reference: PMC2654577
